{
  "source": "patent US20250264433A1",
  "about": "(STATE OF ISRAEL MINISTRY OF AGRICULTURE AND RURAL …, published 2025)",
  "key": {"[1]": {"target": "T1, Recombinant His-tagged EspB (EspB-His), EPEC O127:H6 strain E2348/69", "T1 construct": "also called purified EspB; full-length EspB", "experiment": "ELISA, EspB-coated plate; mAb incubated with NaCl, curve labelled 411mM"}, "[2]": {"target": "T1, Recombinant His-tagged EspB (EspB-His), …", "experiment": "ELISA, EspB-coated plate; mAb incubated with NaCl, curve labelled 45.6mM"}, "[3]": {"target": "T1, Recombinant His-tagged EspB (EspB-His), …", "experiment": "ELISA, EspB-coated plate, serially diluted mAb, anti-human IgG-HRP"}, "[4]": {"target": "T1, Recombinant His-tagged EspB (EspB-His), …", "experiment": "ELISA, EspB-coated plate; mAb incubated with NaCl, curve labelled 274mM"}, "[5]": {"target": "T2, EspB of Citrobacter rodentium DBS100 (Citrobacter rodentium)", "T2 construct": "also called C. rodentium EspB", "experiment": "western blot of culture supernatants, mAb-EspB-B7 as primary antibody"}, "[6]": {"target": "T3, EspB homolog of Salmonella enterica serovar Typhimurium (Salmonella enterica serovar Typhimurium, UniProt D0ZV21 1-409)", "T3 construct": "also called Salmonella EspB homolog", "T3 sequence": "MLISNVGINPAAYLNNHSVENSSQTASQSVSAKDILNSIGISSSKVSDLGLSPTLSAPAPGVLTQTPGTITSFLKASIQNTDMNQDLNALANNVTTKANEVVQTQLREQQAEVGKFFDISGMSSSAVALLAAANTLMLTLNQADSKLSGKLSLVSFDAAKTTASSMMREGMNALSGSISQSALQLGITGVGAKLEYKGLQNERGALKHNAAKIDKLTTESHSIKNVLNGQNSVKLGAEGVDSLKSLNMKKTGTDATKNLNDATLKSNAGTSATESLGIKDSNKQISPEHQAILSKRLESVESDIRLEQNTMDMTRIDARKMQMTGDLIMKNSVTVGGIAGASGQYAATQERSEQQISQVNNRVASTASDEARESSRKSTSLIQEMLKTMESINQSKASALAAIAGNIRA", "experiment": "western blot of culture supernatants, mAb-EspB-B7 as primary antibody"}, "[7]": {"target": "T4, EspB of enterohemorrhagic E. coli (EHEC)", "T4 construct": "also called EHEC EspB", "experiment": "western blot of culture supernatants with mAb-EspB-B7"}, "[8]": {"target": "T1, Recombinant His-tagged EspB (EspB-His), …", "experiment": "ELISA, EspB-coated plate; mAb incubated in goat serum with 1% human serum"}, "[9]": {"target": "T1, Recombinant His-tagged EspB (EspB-His), …", "experiment": "ELISA, EspB-coated plate; mAb incubated in 3% milk in PBS"}, "[10]": {"target": "T1, Recombinant His-tagged EspB (EspB-His), …", "experiment": "SPR (Biacore, EspB amine-coupled to a CM5 chip, mAb injected at 10-90 nM, steady-state fit); ELISA was run as well"}, "[11]": {"target": "T1, Recombinant His-tagged EspB (EspB-His), …", "experiment": "ELISA, EspB-coated plate; mAb incubated in horse serum with 1% human serum"}},
  "data": [
    {"binder": "mAb-EspB-B7 (antibody, V domains shown, also called mAb-B7; anti-EspB antibody) VH: EVQLLESGGGLVQPGGSLRLSCAASGFTFSHYAMNWVRQAPGKGLEWVSAINSNGDSTYYPDTVKDRFTISRDNSKNTLYLQMNSLRAEDTAVYYCARDRRAGYFDYWGQGTLVTVSS VL: DIVLTQPPSASGTPGQRVTISCSGSRDNIGKNYVSWYQQLPGTAPKLLIYRNNQRPSGVPDRFSGSKSGTSASLAISGLRSEDEADYYCSAWDTSLNAYVFGPGTQLTVL", "values": [
      {"measurement": "EC50 (read off the curve)", "setting": "[1]", "result": "~10", "unit": "nM"},
      {"measurement": "EC50 (read off the curve)", "setting": "[2]", "result": "~3", "unit": "nM"},
      {"measurement": "EC50 (read off the curve)", "setting": "[3]", "result": "~8", "unit": "nM"},
      {"measurement": "EC50 (read off the curve)", "setting": "[4]", "result": "~7", "unit": "nM"},
      {"measurement": "binding result", "setting": "[5]", "result": "binds"},
      {"measurement": "binding result", "setting": "[6]", "result": "no binding"},
      {"measurement": "binding result", "setting": "[7]", "result": "binds"},
      {"measurement": "EC50 (read off the curve)", "setting": "[8]", "result": "~2", "unit": "nM"},
      {"measurement": "EC50 (read off the curve)", "setting": "[9]", "result": "~5", "unit": "nM"},
      {"measurement": "Kd", "setting": "[10]", "result": 17.4, "unit": "nM"},
      {"measurement": "EC50 (read off the curve)", "setting": "[11]", "result": "~3", "unit": "nM"}
    ]}
  ]
}
